Experimental data: the nanobody polyreactivity screen of Harvey et al. (2022)

Test: yeast display, Sf9 membrane polyspecificity reagent, FACS + sequencing; frameworks hold sequencing errors
Method in brief: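 Genes from sorted yeast were amplified by colony PCR, read by MiSeq 2 × 250 sequencing and filtered on CDR length. These cells carried a synthetic nanobody library in Saccharomyces cerevisiae BJ5465 and were sorted by FACS into low and high (top ~1%) gates on anti-HA and streptavidin fluorescence. Polyreactivity is labelled according to the gate of origin.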

**Q.** Which “polyreactivity (PSR sort gate)” value does the source give for “QVQLGESGGGLVQAGGSLRLSCAASGITFTHYVMGLYRQAPGKERELVAAISTSGGRTYYADSVKGRFTISRDHAKNSVYLQMNSLKPEDTAVYYCAAVSRAPGLRYDYWGQGTQVTVSS” here?
**A.** high polyreactivity

**Q.** Which “polyreactivity (PSR sort gate)” value does the source give for “QVQLGESGGGLVQAGGSLRLSCAASGLIFVWNDMGWYRQAPGKEGELVADISDGSTYADSVKGRFTISRDNAKNTVYVQMNRLQPEHTAVYYCNKDNHDVELPVEFEYWGQGTQVTVSS” here?
**A.** high polyreactivity

**Q.** Which “polyreactivity (PSR sort gate)” value does the source give for “QVQLGESGGGLVQAGGSLRLSCAASGNIFYRYAMGWYRQAPGKERELVAAITSDGSTYYADSVKGRFTISRDNAKNTVYLQMNSLKPEDTAVYYCAARRGTGSYSYRYPYGYDYWGQGTQVTVSS” here?
**A.** low polyreactivity

**Q.** For “QVQLGESGGGLVQAGGSLRLSCAASGRIFGAYAMGWYRPAPGKERELVAAITSRGGNTYYADSVKGRFTISRDNAKKTAYLQLNSLKPQDTAVYYCAARHDKRRQYYVGQSAFDYGGQGTQVTVSS”, which “polyreactivity (PSR sort gate)” value is on record?
**A.** low polyreactivity

**Q.** With “QVQLGESGGGLVQAGGSLRLSCAASGRIFSKNAMGWYRQAPGKERELVASIRQSGSNTYADSVKGRFTISRVNAKNTVYVQMNSLKPEDTAVYNCAASYFPLNSGRKVGYWGQGTQVTVSS” as the sequence, how does the “polyreactivity (PSR sort gate)” value read?
**A.** low polyreactivity

**Q.** Which “polyreactivity (PSR sort gate)” value does the source give for “QVQLGESGGGLVQAGGSLRLSCAASGRIFSYYAMGWYRQAPGKERELVATIDRSGDPTSYADSVKGRFTISRDNAKNTVYLQMNSLKPEDTAVYYCAATSKRARYDSWGHGTQVTVSS” here?
**A.** high polyreactivity

**Q.** For “QVQLGESGGGLVQAGGSLRLSCAASGRTFLKNALGWYRPAPGKERELVAAITSGGSTNYADSVKGRFTISRDNAKNTVYFQMNCLKPEDTAVYYCAAEYTYGSPYDYWGQGTQVTVSS”, which “polyreactivity (PSR sort gate)” value is on record?
**A.** low polyreactivity

**Q.** Which “polyreactivity (PSR sort gate)” value does the source give for “QVQLGESGGGLVQAGGSLRLSCAASGRTFWSYAMGWYREAAGKERELVAAITSSGGTTNDADSVKGRFTISRDNAKNTVYLQMNSLKPEDTAVYYCAAYSWYFGSRYDYWGQGTQVTVSS” here?
**A.** low polyreactivity

**Q.** For “QVQLGESGGGLVQAGGSLRLSCAASGRTFYTNARGWYRQAAGKARELAADISRGGTTYYADSVKGRFTISRDNAKNTVYLQMNSLKPQDTAVYYSAAEGHELTEGDSWGQGTQVTVSS”, which “polyreactivity (PSR sort gate)” value is on record?
**A.** low polyreactivity

**Q.** With “QVQLGESGGGLVQAGGSLRLSCAASGSIFAYYAMGWYRQAPGKERELVAGISGSGGSTYYADSVKGRFTISRDNAKNTVYLQMNSLKPEDTAVYYCAVDGRRNGDVRYNYWGQGTQVTVSS” as the sequence, how does the “polyreactivity (PSR sort gate)” value read?
**A.** high polyreactivity

**Q.** Which “polyreactivity (PSR sort gate)” value does the source give for “QVQLGESGGGLVQAGGSLRLSCAASGSIFRGYAMGWYRQAPGKGRELVAAISWSGASTYYADSVKGRFTISLDNAKNTVYLQMNSLKPEDTAVYYCAAVQWTGYPFDYWGQGTQVTVSS” here?
**A.** high polyreactivity

**Q.** For “QVQLGESGGGLVQAGGSLRLSCAASGSIFRSYAMGWYRQAPGKERELVAAISWRGGRTYYADSVKGRFTISRDNAKNTVYLQMNSLKPEDTAVYYCAARNRAQQGTRDHDYWGQGTQVTLSS”, which “polyreactivity (PSR sort gate)” value is on record?
**A.** high polyreactivity

**Q.** Which “polyreactivity (PSR sort gate)” value does the source give for “QVQLGESGGGLVQAGGSLRLSCAASGSIFVRNAMGWYRQAPGKERELVAAINGRGTSTYYADSVKGRFTISRDNAKNTVYLQMNSLKPEDTAVYYCATSLTSPRRAYGYWGQGTQVTVSS” here?
**A.** high polyreactivity

**Q.** For “QVQLGESGGGLVQAGGSLRLSCAASGSMFYSNARGWYRQAPGTERELVASIRGSGVSTYYADSVKGRFTISRDNAKNTVYLPMNSLKPEDTAVYDCAPRYGRSYFGYYYWGQGTQVTVSS”, which “polyreactivity (PSR sort gate)” value is on record?
**A.** high polyreactivity

**Q.** With “QVQLGESGGGLVQAGGSLRLSCAASGSTFITYAMGLYRQAPGKERELVAAITRGGRRYYADSVKGRFTISRDNAKNTVYLQMNSLKPEDTAVYYCAARDWASHTPFDYWGQGTQVTVSS” as the sequence, how does the “polyreactivity (PSR sort gate)” value read?
**A.** high polyreactivity

**Q.** Which “polyreactivity (PSR sort gate)” value does the source give for “QVQLGESGGGLVQAGGSLRLSCAASGSTFNIYAMGWSRQSPGNERELVAAISSCGGRTYYADSVKGRFTISLDNAKNTVYLQMNSVKPEDTAVYYCAAVRSYYRGYDYWGQGTQVTVSS” here?
**A.** high polyreactivity

**Q.** Which “polyreactivity (PSR sort gate)” value does the source give for “QVQLGESGGGLVQAGGSLRLSCAASGSTFRINAMGWYRQAPGKERELVADINSGGNTTYADSVKGRFTISRDNAKNTVYLQMNSLKPEDTAVYYCAAPRTYYSELTSPYDYCGQGTQVTVSS” here?
**A.** low polyreactivity

**Q.** For “QVQLGESGGGLVQAGGSLRLSCAASGSTFVRYAMGWYRQAPGKERELVAGISYSGGRTYYADSVKGRFTISRDNAKNTVYLQMNSLKPEDTAVYYCAAEGTTSWWVKYGYWGQGTQVTVSS”, which “polyreactivity (PSR sort gate)” value is on record?
**A.** low polyreactivity

**Q.** For “QVQLGESGGGLVQAGGSRRLSCAASGLIFASNAMGWYRQAPGKEREFDAAISISGGSTYYADSVKGRFTISRDNAKNTVYLQMNSLKPEDTAVYYCAAKLYTVRRPELDYWGQGTQVTVSS”, which “polyreactivity (PSR sort gate)” value is on record?
**A.** low polyreactivity

**Q.** Which “polyreactivity (PSR sort gate)” value does the source give for “QVQLGESGGGLVQAVGSLRLSCAASGITFVYYAMGWSRQEPGKERELVSSISSADNTNYADSVKGRFTISRDNAKNTVYLQMNSLKPEDTAVYYCAADYWWHLRHYSTGGYWGQGTQVTVSS” here?
**A.** low polyreactivity

**Q.** For “QVQLGESGGRLVQAGGSLRLSCAASGSTFPTNAMGWSRQGPGKERELVAAITSTGSTYADSVKGRYTISRDNVKNTVYLQMNSVKPEDTAVYYCAADTQWTTPYDYWGQGTQVTVSS”, which “polyreactivity (PSR sort gate)” value is on record?
**A.** low polyreactivity

**Q.** For “QVQLGESGVGLVQAGGSHRLSCAASGSTSPINAMGWYRQAPGKERELVAVISSSGGRTYYADSVKGRFTISRDNAKNTVYLQMNSLKPEDTAVYYCANRFSRRQPDYDYWGQGTQVTVSS”, which “polyreactivity (PSR sort gate)” value is on record?
**A.** high polyreactivity

**Q.** With “QVQLHESGGGLEQEGGSLRLTCEASGNISPPADMGWYRQAPRKERELVASIGTGGTTNYADIVKARFTISRDNAKNTVYLQMNSLKPDDTSVYYWAAVRYEYNPYDYWGQGTQVTVSS” as the sequence, how does the “polyreactivity (PSR sort gate)” value read?
**A.** low polyreactivity

**Q.** Which “polyreactivity (PSR sort gate)” value does the source give for “QVQLHESGGGLLQAGGTLRLSCAASGTISYAGPMCWYRQSPGKEREFVAGIGVGSNTNYADSVKGRYTIIRDNAKNTVYLQMNSLKPEDTAVYYCAVGGFAPLGRPYWGQGTQVTVSS” here?
**A.** low polyreactivity

**Q.** Which “polyreactivity (PSR sort gate)” value does the source give for “QVQLHESGGGLVQAGGSLRLSCAASGTISVTYNMAWYRQAPGKEREFVAGNSTGATTNYADSVKGRFTISRDNAKNTVYLQMNSLKPEDTAVYYCAAHIYRQDHFYYWGQGTQVTVSS” here?
**A.** low polyreactivity

**Q.** With “QVQLHESGGGLVQAGGSLRLSCAASGTISYAGPMGWYRQAPGKEREFVAGIGVGSNTNYADSVKGRYTIIRDNAKNTVYLQMNSLKPEDTAVDYCAVGGYAPLGRPYWGQGTQVTVSS” as the sequence, how does the “polyreactivity (PSR sort gate)” value read?
**A.** low polyreactivity

**Q.** For “QVQLHESGGGLVQAGGSLRLSCAASGTISYAGPMGWYRQAPGKEREFVAGIGVGSNTNYADSVKGRYTIIRDNAKNTVYLQMNSLQPEDTAVYYCAVGGFAPLGRPYWGQGTQVTVSS”, which “polyreactivity (PSR sort gate)” value is on record?
**A.** low polyreactivity

**Q.** For “QVQLHESGGGMVQAGGSLRLSSAASGIIFDNPNMGWYRLSPGKERELVATINSGATTNYADSVKGRFTISRDNEKNTVYLLMNSLIPEETAVYFCAVDLSPTYFYYWGQGTKVTVSS”, which “polyreactivity (PSR sort gate)” value is on record?
**A.** high polyreactivity

**Q.** Which “polyreactivity (PSR sort gate)” value does the source give for “QVQLIESGGGLVKAGGSLRLSCAATGSIFYRNTMGWYRQAPGKERELVARISWSGGRTYYADSVKGRFTISRDNAKNTVYLQMNSLKPEDTAVYYCAASTYGQRGTSYGYWGQGTQVSVSS” here?
**A.** low polyreactivity

**Q.** With “QVQLIESGGGLVQAGGSLRLSCAASGIIFRTYAMGWYRQAPGKERELVAAITSGGSTNYADSVKGRFTISRDNAKNTVYLQMNSLKPEDTAVYYCAARTYTSRYSYGYWGQGTQVTVSS” as the sequence, how does the “polyreactivity (PSR sort gate)” value read?
**A.** high polyreactivity

**Q.** With “QVQLIESGGGLVQAGGSLRLSCAASGSTFERNTMGWYRQAPGKERELVAAITSGGRTYYADSVKGRFTISRDNAKNTVYLQMNSLKPEDTAVYYCAARLGRHVSYWRSGWTNMDYWGQGTQVTVSS” as the sequence, how does the “polyreactivity (PSR sort gate)” value read?
**A.** high polyreactivity

**Q.** For “QVQLIESGGGLVQAGGSLRLSCAASGSTFYGNAMGWYRQAPGKEREFVDAITGSGDSTDYADSVKGRFTISRDNAKNTVYLQMNSLKPEDTAVYFCNAEVFDRDSYEYWGQGTQVSVSS”, which “polyreactivity (PSR sort gate)” value is on record?
**A.** low polyreactivity

**Q.** For “QVQLIESGGGLVQAGGSLRLSCAASGSTLGLYDMGWYRQAPGKERELVAAISTGSGSTYYADSVKGRFTISRDNAKYTVYLLMISLKPEDTAVYYCNTDAWYSPIWFWVDSWGQGTQVTVSS”, which “polyreactivity (PSR sort gate)” value is on record?
**A.** low polyreactivity

**Q.** Which “polyreactivity (PSR sort gate)” value does the source give for “QVQLIESGGVLVQAGGSLRLSCAASGSTFTINVMGWYRQAPGKERELVAAINGGGRTNYADSVKGRFTISRDNAKNTVYLQINSLKPEDTAVYYCAADGLSNVRQMDYWGQGTQVTVSS” here?
**A.** low polyreactivity

**Q.** With “QVQLKESGAGLVQAGGSLRLCCAASGNIIPDAGMGWYRQAPGKEREFVAGISRGANTYYADSVKGRFTISRDNAKNSVYLQMNSLKPEDTAVYYCNAGSSYLCRFPLDYWGQGTQVTVSS” as the sequence, how does the “polyreactivity (PSR sort gate)” value read?
**A.** high polyreactivity

**Q.** Which “polyreactivity (PSR sort gate)” value does the source give for “QVQLLDSGGGLVQAGGSLRLSCAASGFIFRPYPMACYRQSPGKERELVAPITGGGSTYYADSVKGRFTISRENAKNTVYLQMNSLKPEDTAVYYCNADRRRRSGGFAGWHFQRNDFWGQGTQVTVSS” here?
**A.** low polyreactivity

**Q.** Which “polyreactivity (PSR sort gate)” value does the source give for “QVQLLESAGGLVQAGGSLRLICAASGSTFYNYAMGWYRQAPGKERELVDSITSSGVSTYYADSVKGRFTISRDIAKNTVYLQMNSLKPDDTAVYYCNADDGYGQVHSISTYEMDYWGQGTQVTVSS” here?
**A.** low polyreactivity

**Q.** With “QVQLLESGCGLVQAGGSLRLSCMASGSILGDRMSWYRQAPGKEHELVATIYDGGITYYADSMKGRFTISRDNAKNTVYLQMNSLRPEDTAVYYCGASFEGYRYHVYCGQGTQVTVSS” as the sequence, how does the “polyreactivity (PSR sort gate)” value read?
**A.** low polyreactivity

**Q.** With “QVQLLESGGCLVQAGGSLRLSCAASGSTFWHNAMGWYRQAPGKERELVAAISSGSSTYYADSVKGRFTISRDNAKNTVYLQMNSLKPEDTAVYYCAKELYLGYRYWGYYWGQGTQVTVSS” as the sequence, how does the “polyreactivity (PSR sort gate)” value read?
**A.** high polyreactivity

**Q.** Which “polyreactivity (PSR sort gate)” value does the source give for “QVQLLESGGGIVQAGGSHRLRCAASGSIFGTNAMCWYRQATGKERELVAAISLSTGSTYYADSVKGRFTISRDNAKNTVYLQMNSLKPEDTAVYYCAAYYVTPIYYYWGQGTQVTVSS” here?
**A.** low polyreactivity

**Q.** For “QVQLLESGGGLDQAGGSLRLTSAASGSIFYGYAMGWYRQAPRKERELVAAISYSGDRTYYADSVKGRFTISRDNAKNTVYLQMNSLKPEDTAVYYCAARKHGGTVRGRRDYWGQGTQVTVSS”, which “polyreactivity (PSR sort gate)” value is on record?
**A.** high polyreactivity
